Here are results for four molecules from US20150274831A1 (Hoffmann-La Roche, published 2015).

Sequences and labels used below:
B1: Mab 2F11 (antibody, V domains shown)
VH: QVQLKESGPGLVAPSQSLSITCTVSGFSLTTYDISWIRQSPGKGLEWLGVIWTDGGTNYNSPFMSRLSIRKDNSKSQVFLKMNRLQTDDTAIYYCVRDQRLYFDVWGAGTTVTVSS
VL: NIVMTQSPKSMSMSVGERVTLNCKASEDVNTYVSWYQQQPEQSPKLLIYGASNRYTGVPDRFTGGGSTTDFTLTISSVQAEDLADYFCGQSFSYPTFGTGTKLEIK
B2: Mab 1G10 (antibody, V domains shown)
VH: B1 VH with Q1R, T31S, T53S, D54G, S68R, R70S, N73D, K75R, M82V, Q99L
VL: KIVMTQSPKSMSVSVGERVSLSCKASEDVGTYVSWYQQKPEQSPKLLIYGSSNRYTGVPDRFTGSGSATDFTLTISSVQAEDLADYSCGQSFTYPTFGTGTKLEIK
B3: Mab 2E10 (antibody, V domains shown)
VH: QVQLKESGPGLVAPSKSLSITCTVSGSSLDSFDISWIRQSPGKGLEWLGVIWTGGGTNYNSGFMSRLRITKDNSKSQVLLKMNSLQSDDTAIYYCVRDPRLYFDVWGAGTTVTVSS
VL: B1 VL with N22S, N30V, Q39K, E41D, G65S, T68A, F87Y, S91T
B4: Mab 2H7 (antibody, V domains shown)
VH: B3 VH with S40P, T70S, L79F, N83S
VL: B1 VL with N22S, N30V, Q39K, G65S, T68A, V78I, F87Y, S91T

Where a chain is given by its changes, count along the chain named.

For the assay, the target named is CSF-1R on cynomolgous monocytes (native receptor of CD14-enriched peripheral blood monocytes) (cynomolgous). Put plainly: cell-based or functional assay.
For the molecule B1, the “% inhibition (of survival) = (100% - % survival) (CellTiterGlo; cynomolgous monocytes with 150 ng/ml huCSF-1; 5 µg/ml antibody)” value came out at 96% and the “% survival (CellTiterGlo; cynomolgous monocytes with 150 ng/ml huCSF-1; 5 µg/ml antibody)” value worked out at 4%.
With B2, the “% inhibition (of survival) = (100% - % survival) (CellTiterGlo; cynomolgous monocytes with 150 ng/ml huCSF-1; 5 µg/ml antibody)” value came to 98% and the “% survival (CellTiterGlo; cynomolgous monocytes with 150 ng/ml huCSF-1; 5 µg/ml antibody)” value is 2%.
On the same counts, the results for B3 are 83% and 17%.
For B4, in that order: 92% and 8%.
